Entries after “also recorded” stand apart in the source; their conditions may differ.
B1: recombinant NELL2: purified recombinant NELL2 protein added to the culture medium (protein, UniProt Q99435 22-816, looked up)
Protein kinase C-binding …: LGVDPSLQIDVLTELELGESTTGVRQVPGLHNGTKAFLFQDTPRSIKASTATAEQFFQKLRNKHEFTILVTLKQTHLNSGVILSIHHLDHRYLELESSGHRNEVRLHYRSGSHRPHTEVFPYILADDKWHKLSLAISASHLILHIDCNKIYERVVEKPSTDLPLGTTFWLGQRNNAHGYFKGIMQDVQLLVMPQGFIAQCPDLNRTCPTCNDFHGLVQKIMELQDILAKTSAKLSRAEQRMNRLDQCYCERTCTMKGTTYREFESWIDGCKNCTCLNGTIQCETLICPNPDCPLKSALAYVDGKCCKECKSICQFQGRTYFEGERNTVYSSSGVCVLYECKDQTMKLVESSGCPALDCPESHQITLSHSCCKVCKGYDFCSERHNCMENSICRNLNDRAVCSCRDGFRALREDNAYCEDIDECAEGRHYCRENTMCVNTPGSFMCICKTGYIRIDDYSCTEHDECITNQHNCDENALCFNTVGGHNCVCKPGYTGNGTTCKAFCKDGCRNGGACIAANVCACPQGFTGPSCETDIDECSDGFVQCDSRANCINLPGWYHCECRDGYHDNGMFSPSGESCEDIDECGTGRHSCANDTICFNLDGGYDCRCPHGKNCTGDCIHDGKVKHNGQIWVLENDRCSVCSCQNGFVMCRRMVCDCENPTVDLFCCPECDPRLSSQCLHQNGETLYNSGDTWVQNCQQCRCLQGEVDCWPLPCPDVECEFSILPENECCPRCVTDPCQADTIRNDITKTCLDEMNVVRFTGSSWIKHGTECTLCQCKNGHICCSVDPQCLQEL

Assays:
[1] = test system: BAF complexes; test: Actin in BAF complexes (immunoprecipitation, phalloidin dot blot and phalloidin pull-down); assay type: cell-based; conditions: A-673 cell nuclear extract
Protocol: Immunoprecipitation. Immunoprecipitation was performed (Shiio, Y., and Eisenman, R. N. (2003) Histone sumoylation is associated with transcriptional repression. Proc Natl Acad Sci USA). The following antibodies were used: rabbit monoclonal anti-BRG1 (ab110641, Abcam), rabbit monoclonal anti-BAF57 (33360, Cell Signaling Technologies), and mouse monoclonal anti-FLAG M2 (F1804, MilliporeSigma).
Phalloidin dot blot assays. The BAF complexes were immuno-purified from nuclear extract using anti-BRG1 or anti-BAF57, (for endogenous BAF) or anti-FLAG antibody (for FLAG-BRG1-containing BAF) and were spotted onto a nitrocellulose membrane (sample amount normalized by cell number). The membrane was allowed to dry at room temperature for 30 minutes. The membrane was rinsed with TBST (150 mM NaCl, 20 mM Tris, pH7.4, 0.05% Tween-20), blocked with 5% BSA in TBST, and incubated with Biotin-XX Phalloidin (Biotium) either overnight at 4° C. or for two hours at room temperature followed by three washes with TBST. The membrane was incubated with High Sensitivity Streptavidin-HRP (21130, Pierce/Thermo Fisher) for one hour and was washed three times with TBST, followed by detection with ECL reagent.

[2] = test system: A-673 and EW8 cells; test: Proliferation of NELL2- or Robo3-silenced Ewing sarcoma cells (IncuCyte); assay type: cell-based, human; conditions: A-673 cells transfected with NELL2 siRNAs, recombinant NELL2 250 ng/ml
Protocol: Transfection and viral infection. Calcium phosphate co-precipitation was used for transfection of 293T cells. Lentiviruses were prepared by transfection in 293T cells following System Biosciences' protocol, and the cells infected with lentiviruses were selected with 2 μg/mL puromycin for 48 hours. The target sequences for shRNAs are as follows: FLI1 C-terminus shRNA, […] (SEQ ID NO: 20); luciferase shRNA, […] (SEQ ID NO: 21); NELL2 shRNA-1, […] (SEQ ID NO: 22); and NELL2 shRNA-2, […] (SEQ ID NO: 23). The following siRNAs were used: human NELL2 siRNA SMARTpool (M-012185-00); Dharmacon), human Robo3 siRNA SMARTpool (M-026504-00; Dharmacon), human Robo3 siRNAs NM_022370 (SASI_Hs01_00099511, SASI_Hs01_00099512, SASI_Hs01_00099513, SASI_Hs01_00099514, SASI_Hs01_00099515 and SASI_Hs01_00099516; MilliporeSigma), human cdc42 siRNA SMARTpool (M-005057-01; Dharmacon), human CD133 siRNA SMARTpool (M-010630-01; Dharmacon), human srGAP1 siRNA SMARTpool (M-026974-00; Dharmacon), srGAP2 siRNA SMARTpool (M-021531-03; Dharmacon), human caveolin-1 siRNA SMARTpool (M-003467-01; Dharmacon), human GDF6 siRNA SMARTpool (M-0330055-01; Dharmacon), and Non-Targeting siRNA Pool #2 (D-0012Jun. 14, 2005; Dharmacon), siRNA transfection of cell lines was performed using Lipofectamine™ RNAiMAX Transfection Reagent (Thermo Fisher).
Cell proliferation and xenograft tumorigenicity assays. Anchorage-dependent cell proliferation was assessed by IncuCyte live-cell imaging system (Essen BioScience). The IncuCyte system monitors cell proliferation by analyzing the occupied area (% confluence) of cell images over time. At least four fields from four wells were assayed for each experimental condition. The cell seeding density was 2000 cells per well in a 96-well plate. […] Anchorage-independent cell proliferation was evaluated by soft agar colony formation assays. […] Colonies were grown for three weeks and counted. Colonies (>50 cells) were scored by randomly counting 10 fields per dish. […] Tumor growth was monitored weekly using a caliper. […]

[3] = test system: BAF complexes; test: BAF subunit protein levels by immunoblotting in Ewing sarcoma cells; assay type: cell-based, human
From the text: Immunoblotting. […] The following antibodies were used: rabbit polyclonal anti-FLI1 (ab15289, Abcam); mouse monoclonal anti-FLAG M2 (F1804, MilliporeSigma): rabbit monoclonal anti-NELL2 (ab181376, Abcam); goat polyclonal anti-PGK1 (sc-17943, Santa Cruz Biotechnology); rabbit polyclonal anti-Robo3 (LS-C345713, LSBio); goat polyclonal anti-Robo3 (PA5-18714, Thermo Fisher Scientific); mouse monoclonal anti-cdc42 (ACD03, Cytoskeleton); rabbit polyclonal anti-Rac1/2/3 (2465, Cell Signaling Technologies); rabbit polyclonal anti-Rho A (2117, Cell Signaling Technologies); goat polyclonal anti-BRG1 (A303-877A, Bethyl Laboratories); rabbit monoclonal anti-BRG1 (49360, Cell Signaling Technologies); rabbit polyclonal anti-BRM (A301-014A-T, Bethyl Laboratories); mouse monoclonal anti-ARID1A/BAF250) (sc-32761, Santa Cruz Biotechnology); rabbit polyclonal anti-BAF170 (A301-039A-T, Bethyl Laboratories); rabbit monoclonal anti-BAF155 (11956, Cell Signaling Technologies); rabbit polyclonal anti-BAF60B (A301-596A-T, Bethyl Laboratories); rabbit polyclonal anti-BAF57 (A300-810A-T, Bethyl Laboratories); rabbit polyclonal anti-BAF53A (A301-391A-T, Bethyl Laboratories); rabbit monoclonal anti-BAF47 (8745, Cell Signaling Technologies); rabbit polyclonal anti-BRD9 (A303-781A-T, Bethyl Laboratories); rabbit monoclonal anti-SS18 (21792, Cell Signaling Technologies); rabbit monoclonal anti-CD133 (64326, Cell Signaling Technologies); rabbit polyclonal anti-srGAP1 (A301-286A-T, Bethyl Laboratories); rabbit polyclonal anti-srGAP2 (GTX130797, GeneTex); mouse monoclonal anti-tubulin (DMIA, Thermo Fisher Scientific); rabbit polyclonal anti-β-actin (4967, Cell Signaling Technologies); mouse monoclonal anti-Rpb1 (2629, Cell Signaling Technologies); rabbit monoclonal anti-cdc6 (3387, Cell Signaling Technologies); rabbit monoclonal anti-caveolin-1 (3267, Cell Signaling Technologies); rabbit polyclonal anti-phospho-caveolin-1 (3251, Cell Signaling Technologies); rabbit monoclonal anti-Src (2123, Cell Signaling Technologies); rabbit monoclonal anti-phospho-Src Family (6943, Cell Signaling Technologies); and rabbit polyclonal anti-GDF6 (NBP1-91934, Novus Biologicals). The following HRP-conjugated secondary antibodies were used: goat anti-rabbit (7074) and goat anti-mouse (7076) (Cell Signaling Technologies); donkey anti-goat (A50)-201P, Bethyl Laboratories).

[4] = test system: cdc42 and Rac; test: GST-PAKI pull-down of active cdc42 and Rac; assay type: cell-based, human; conditions: FIG. 3D
Protocol: GST pull-down assays. The active form of cdc42, Rac, and Rho A was analyzed by pull-down of whole cell lysate with GST-PAKI (active cdc42 and Rac) and GST-RBD (active Rho A) followed by immunoblotting for cdc42, Rac, and Rho A as described (Ren, X. D., et al. (1999) EMBO J 18, 578-585).

[5] = test system: BAF complexes; test: Gel filtration chromatography of nuclear extract (BAF complex assembly); assay type: cell-based; conditions: A-673 cells; four-hour treatment
Protocol: Gel filtration chromatography. Nuclear extract was prepared as described (Carey, M. F., et al. (2009) Dignam and Roeder nuclear extract preparation. Cold Spring Harbor protocols 2009, pdb prot5330). The extract (5 mg) was loaded onto HiPrep 16/60 Sephacryl S-400 HR column (GE Healthcare) equilibrated with a gel filtration buffer (150 mM NaCl, 20 mM Hepes-KOH, 10 mM KCl, 1 mM MgCl2, 1 mM EDTA, 1 mM EGTA, 1 mM DTT, pH 7.5). Proteins were eluted at 1 ml/min and 1-ml fractions were collected. Every fourth fraction was concentrated and analyzed by immunoblotting.

[6] = test system: CD133^low population; test: Proliferation of sorted CD133low population (IncuCyte); assay type: cell-based, human; conditions: FIG. 5A
Protocol: Cell proliferation and xenograft tumorigenicity assays. Anchorage-dependent cell proliferation was assessed by IncuCyte live-cell imaging system (Essen BioScience). The IncuCyte system monitors cell proliferation by analyzing the occupied area (% confluence) of cell images over time. At least four fields from four wells were assayed for each experimental condition. The cell seeding density was 2000 cells per well in a 96-well plate. For each assay, biological replicates were performed to confirm the reproducibility of results. Anchorage-independent cell proliferation was evaluated by soft agar colony formation assays. A-673 cells were infected with lentiviruses expressing shRNAs against NELL2 or scrambled shRNA and were selected with 2 μg/ml puromycin. Four days after infection, 4×10^3 cells were plated in soft agar. The soft agar cultures were composed of two layers; a base layer [4 ml in a 60-mm dish; DMEM/10% fetal bovine serum/0.6% noble agar (A5431, MilliporeSigma)/penicillin/streptomycin] and a cell layer (2 ml in a 60-mm dish; DMEM/10% fetal bovine serum/0.3% noble agar/penicillin/streptomycin). Colonies were grown for three weeks and counted. Colonies (>50 cells) were scored by randomly counting 10 fields per dish. Sphere formation assays were done (Dasgupta, A., et al. (2017) Oncotarget 8, 77292-77308) using ultra-low attachment 6-well plates (Corning: seeding density 1×10^4 cells/well) and DMEM/F-12 medium supplemented with B27, human recombinant epidermal growth factor (20 ng/ml), and basic fibroblast growth factor (20 ng/ml). For xenograft tumorigenicity assays, cells were subcutaneously injected into the flanks of SCID mice (2×10^6 cells/injection, five mice/group). Tumor growth was monitored weekly using a caliper. While it is not possible to predict the effect size, the sample size of five mice per group was chosen based on experience with xenograft experiments. Mice were randomly allocated to treatment groups. Blinding of the researcher measuring tumor size was employed.
Flow cytometry. […]

[7] = test system: Robo3-FLAG on A-673 cell surface; test: Robo3-FLAG cell surface staining in NELL2-silenced cells; assay type: cell-based, human; conditions: A-673 cells; FIG. 2D
Protocol: Immunofluorescence. Cells grown on coverslips were fixed with 4% paraformaldehyde for 15 minutes at room temperature, washed with PBS, and permeabilized with 0.2% pre-chilled Triton-X 100/PBS for 5 minutes. The samples were blocked with culture medium for one hour and incubated with the primary antibody for three hours followed by the secondary antibody for one hour. The following primary antibodies were used: rabbit polyclonal anti-NELL2 (NBP1-82527, Novus Biologicals); mouse monoclonal anti-FLAG M2 (F1804, MilliporeSigma); mouse monoclonal anti-CD133 AC133 (130-090-422, Miltenyi Biotec); rabbit polyclonal anti-FLI1 (ab15289, Abcam); and mouse monoclonal anti-CD99 (MS-1633-P0, Thermo Fisher Scientific). The following secondary antibodies were used: Alexa Fluor 488, goat anti-rabbit IgG (A11034, Thermo Fisher Scientific); Alexa Fluor 568, goat anti-rabbit IgG (A11036, Thermo Fisher Scientific); Alexa Fluor 488, goat anti-mouse IgM (A21042, Thermo Fisher Scientific); and Alexa Fluor 594, goat anti-mouse IgG (A11032, Thermo Fisher Scientific). Nuclei were stained with DAPI. DyLight™ 554 Phalloidin (13054, Cell Signaling Technologies) was used to visualize filopodia.

Row | Molecule | BRG1 and BRM pulled down by biotin-conjugated phalloidin [1] | Proliferation inhibition by NELL2 silencing, rescue by recombinant protein [2] | Proliferation inhibition by NELL2 silencing, rescue by recombinant protein ([2]; listed as Recombinant NELL2) | BAF subunit levels in NELL2 siRNA-transfected cells ([3]; A-673 and EW8 cells, recombinant NELL2 250 ng/ml, FIG. 3J) | CD133 and BAF subunit protein levels in the CD133low population ([3]; four or twenty-four hours, FIG. 5B) | BRG1, BAF155, and BAF47 levels after NELL2 silencing in the presence of dasatinib ([3]; recombinant NELL2 250 ng/ml, dasatinib present) | Activation of cdc42 and Rac by NELL2 silencing ([4]; lane 1-3) | Active cdc42 and active Rac in srGAP1- and srGAP2-silenced cells ([4]; lane 4-6) | Size of the BAF complexes after NELL2 silencing [5] | Recombinant NELL2 concentration able to rescue the slow growth of the CD133low population [6] | Slow growth of the CD133low population [6] | Accumulation of Robo3-FLAG on the cell surface after NELL2 silencing [7]
1 | C/C1=C\[C@H](C)C[C@H](C)OC(=O)C[C@H](c2ccc(O)cc2)NC(=O)[C@@H](Cc2c(Br)[nH]c3ccccc23)N(C)C(=O)[C@H](C)NC(=O)[C@@H](C)C1 [Jasplakinolide] | more BRG1 and BRM are pulled down |  |  |  |  |  |  |  |  |  |  | 
2 | B1 |  | rescues proliferation arrest; also recorded: completely rescued | able to rescue the proliferation | restores the protein levels of BAF subunits; also recorded: rescued | increases CD133 and BAF subunits; also recorded: increased CD133, BRG1, BAF250A, BAF155, and BAF47 | rescued | abolished | not affected | largely restored the size | ≥ 250 ng/mL | can be rescued; also recorded: rescues the slow growth | reversed
